This assay addresses T1, CSPG (bovine) (D8428, Sigma) (bovine, UniProt P21793 31-360, carries chondroitin sulfate A (CSA) glycosaminoglycan chain(s); the filing attributes the binding of VAR2CSA to this glycan).
T1 construct: also called chondroitin sulfate proteoglycan; CSA proteoglycan
In words: quartz crystal microbalance (Attana A100), CSPG coated, 1:1 fit.

T1 sequence (P21793 31-360): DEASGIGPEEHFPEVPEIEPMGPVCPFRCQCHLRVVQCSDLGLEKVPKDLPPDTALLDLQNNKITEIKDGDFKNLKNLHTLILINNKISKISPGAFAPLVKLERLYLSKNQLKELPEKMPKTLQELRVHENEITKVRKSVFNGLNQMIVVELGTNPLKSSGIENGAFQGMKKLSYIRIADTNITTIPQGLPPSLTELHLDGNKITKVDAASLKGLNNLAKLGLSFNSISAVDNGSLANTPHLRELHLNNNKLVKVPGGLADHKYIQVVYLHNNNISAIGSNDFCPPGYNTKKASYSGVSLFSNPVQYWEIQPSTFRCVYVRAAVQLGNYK

B1: ID1-ID2a (FCR3, Baculo) (other)
chain: NYIKGDPYFAEYATKLSFILNPSDANNPSGETANHNDEACNCNESGISSVGQAQTSGPSSNKTCITHSSIKTNKKKECKDVKLGVRENDKDLKICVIEDTSLSGVDNCCCQDLLGILQENCSDNKRGSSSNDSCDNKNQDECQKKLEKVFASLTNGYKCDKCKSGTSRSKKKWIWKKSSGNEEGLQEEYANTIGLPPRTQSLYLGNLPKLENVCEDVKDINFDTKEKFLAGCLIVSFHEGKNLKKRYPQNKNSGNKENLCKALEYSFADYGDLIKGTSIWDNEYTKDLELNLQNNFGKLFGKYIKKNNTAEQDTSYSSLDELRESWWNTNKKYIWTAMKHGAEMNITTCNADGSVTGSGSSCDDIPTIDLIPQYLRFLQEWVENFCEQRQAKVKDVITNCKSCKESGNKCKTECKTKCKDECEKYKKFIEACGTAGGGIGTAGSPWSKRWDQIYKRYSKHIEDAKRNRKAGTKNCGTSSTTNAAASTDENKCVQSDIDSFFKHLIDIGLTTPSSYLSNVLDDNICGADKAPWTTYTTYTTTEKCNKERDKSKSQSSDTLVVVNVPSPLGNTPYRYKYACQCKIPTNEETCDDRKEYMNQWSCGSARTMKRGYKNDNYELCKYNGVDVKPTTVRSNSSKLD
notes: The primers (NYIKGD ... NSSKLD) match its two ends; not shown: V5 and His tag at the C-terminal (modified pAcGP67-A)
In turn, B1 showed a dissociation constant Kd of 7.6 nM.

B2: ID1-ID2a (FCR3, E. coli) (other)
chain: NYIKGDPYFAEYATKLSFILNPSDANNPSGETANHNDEACNCNESGISSVGQAQTSGPSSNKTCITHSSIKTNKKKECKDVKLGVRENDKDLKICVIEDTSLSGVDNCCCQDLLGILQENCSDNKRGSSSNDSCDNKNQDECQKKLEKVFASLTNGYKCDKCKSGTSRSKKKWIWKKSSGNEEGLQEEYANTIGLPPRTQSLYLGNLPKLENVCEDVKDINFDTKEKFLAGCLIVSFHEGKNLKKRYPQNKNSGNKENLCKALEYSFADYGDLIKGTSIWDNEYTKDLELNLQNNFGKLFGKYIKKNNTAEQDTSYSSLDELRESWWNTNKKYIWTAMKHGAEMNITTCNADGSVTGSGSSCDDIPTIDLIPQYLRFLQEWVENFCEQRQAKVKDVITNCKSCKESGNKCKTECKTKCKDECEKYKKFIEACGTAGGGIGTAGSPWSKRWDQIYKRYSKHIEDAKRNRKAGTKNCGTSSTTNAAASTDENKCVQSDIDSFFKHLIDIGLTTPSSYLSNVLDDNICGADKAPWTTYTTYTTTEKCNKERDKSKSQSSDTLVVVNVPSPLGNTPYRYKYACQCKIPTNEETCDDRKEYMNQWSCGSARTMKRGYKNDNYELCKYNGVDVKPTTVRSNSSKLD
notes: Made in E. coli
On to B2, for which the affinity, expressed as Kd, was 18.3 nM.

B3: DBL1-ID2a (3D7, Baculo) (other)
chain: HSDSGTNDPCDRIPPPYGDNDQWKCAIILSKVSEKPENVFVPPRRQRMCINNLEKLNVDKIRDKHAFLADVLLTARNEGERIVQNHPDTNSSNVCNALERSFADIADIIRGTDLWKGTNSNLEQNLKQMFAKIRENDKVLQDKYPKDQNYRKLREDWWNANRQKVWEVITCGARSNDLLIKRGWRTSGKSNGDNKLELCRKCGHYEEKVPTKLDYVPQFLRWLTEWIEDFYREKQNLIDDMERHREECTSEDHKSKEGTSYCSTCKDKCKKYCECVKKWKSEWENQKNKYTELYQQNKNETSQKNTSRYDDYVKDFFKKLEANYSSLENYIKGDPYFAEYATKLSFILNSSDANNPSEKIQKNNDEVCNCNESGIASVEQEQISDPSSNKTCITHSSIKANKKKVCKHVKLGVRENDKDLRVCVIEHTSLSGVENCCCQDFLRILQENCSDNKSGSSSNGSCNNKNQEACEKNLEKVLASLTNCYKCDKCKSEQSKKNNKNWIWKKSSGKEGGLQKEYANTIGLPPRTQSLCLVVCLDEKGKKTQELKNIRTNSELLKEWIIAAFHEGKNLKPSHEKKNDDNGKKLCKALEYSFADYGDLIKGTSIWDNEYTKDLELNLQKIFGKLFRKYIKKNNTAEQDTSYSSLDELRESWWNTNKKYIWLAMKHGAGMNSTTCCGDGSVTGSGSSCDDIPTIDLIPQYLRFLQEWVEHFCKQRQEKVKPVIENCKSCKESGGTCNGECKTECKNKCEVYKKFIEDCKGGDGTAGSSWVKRWDQIYKRYSKYIEDAKRNRKAGTKNCGPSSTTNAAENKCVQSDIDSFFKHLIDIGLTTPSSYLSIVLDDNICGADKAPWTTYTTYTTTEKCNKETDKSKLQQCNTAVVVNVPSPLGNTPHGYKYACQCKIPTNEETCDDRKEYMNQWSCGSARTMKRGYKNDNYELCKYNGVDVKPTTVRSNSSKLD
notes: also called DBL1X-ID2a; not shown: V5 and His tag at the C-terminal (modified pAcGP67-A)
Take B3: binding was put at a Kd of 29.5 nM.

B4: DBL1-ID2a (FCR3, Baculo) (other)
chain: HSDSGKYDPCEKKLPPYDDNDQWKCQQNSSDGSGKPENICVPPRRERLCTYNLENLKFDKIRDNNAFLADVLLTARNEGEKIVQNHPDTNSSNVCNALERSFADLADIIRGTDQWKGTNSNLEKNLKQMFAKIRENDKVLQDKYPKDQKYTKLREAWWNANRQKVWEVITCGARSNDLLIKRGWRTSGKSDRKKNFELCRKCGHYEKEVPTKLDYVPQFLRWLTEWIEDFYREKQNLIDDMERHREECTREDHKSKEGTSYCSTCKDKCKKYCECVKKWKTEWENQENKYKDLYEQNKNKTSQKNTSRYDDYVKDFFEKLEANYSSLENYIKGDPYFAEYATKLSFILNPSDANNPSGETANHNDEACNCNESGISSVGQAQTSGPSSNKTCITHSSIKTNKKKECKDVKLGVRENDKDLKICVIEDTSLSGVDNCCCQDLLGILQENCSDNKRGSSSNDSCDNKNQDECQKKLEKVFASLTNGYKCDKCKSGTSRSKKKWIWKKSSGNEEGLQEEYANTIGLPPRTQSLYLGNLPKLENVCEDVKDINFDTKEKFLAGCLIVSFHEGKNLKKRYPQNKNSGNKENLCKALEYSFADYGDLIKGTSIWDNEYTKDLELNLQNNFGKLFGKYIKKNNTAEQDTSYSSLDELRESWWNTNKKYIWTAMKHGAEMNITTCNADGSVTGSGSSCDDIPTIDLIPQYLRFLQEWVENFCEQRQAKVKDVITNCKSCKESGNKCKTECKTKCKDECEKYKKFIEACGTAGGGIGTAGSPWSKRWDQIYKRYSKHIEDAKRNRKAGTKNCGTSSTTNAAASTDENKCVQSDIDSFFKHLIDIGLTTPSSYLSNVLDDNICGADKAPWTTYTTYTTTEKCNKERDKSKSQSSDTLVVVNVPSPLGNTPYRYKYACQCKIPTNEETCDDRKEYMNQWSCGSARTMKRGYKNDNYELCKYNGVDVKPTTVRSNSSKLD
notes: also called DBL1X-ID2a; wild-type protein; not shown: V5 and His tag at the C-terminal (modified pAcGP67-A)
B4: the affinity, expressed as Kd, was 8 nM.

B5: DBL1-ID2a (FCR3, E. coli) (other)
chain: HSDSGKYDPCEKKLPPYDDNDQWKCQQNSSDGSGKPENICVPPRRERLCTYNLENLKFDKIRDNNAFLADVLLTARNEGEKIVQNHPDTNSSNVCNALERSFADLADIIRGTDQWKGTNSNLEKNLKQMFAKIRENDKVLQDKYPKDQKYTKLREAWWNANRQKVWEVITCGARSNDLLIKRGWRTSGKSDRKKNFELCRKCGHYEKEVPTKLDYVPQFLRWLTEWIEDFYREKQNLIDDMERHREECTREDHKSKEGTSYCSTCKDKCKKYCECVKKWKTEWENQENKYKDLYEQNKNKTSQKNTSRYDDYVKDFFEKLEANYSSLENYIKGDPYFAEYATKLSFILNPSDANNPSGETANHNDEACNCNESGISSVGQAQTSGPSSNKTCITHSSIKTNKKKECKDVKLGVRENDKDLKICVIEDTSLSGVDNCCCQDLLGILQENCSDNKRGSSSNDSCDNKNQDECQKKLEKVFASLTNGYKCDKCKSGTSRSKKKWIWKKSSGNEEGLQEEYANTIGLPPRTQSLYLGNLPKLENVCEDVKDINFDTKEKFLAGCLIVSFHEGKNLKKRYPQNKNSGNKENLCKALEYSFADYGDLIKGTSIWDNEYTKDLELNLQNNFGKLFGKYIKKNNTAEQDTSYSSLDELRESWWNTNKKYIWTAMKHGAEMNITTCNADGSVTGSGSSCDDIPTIDLIPQYLRFLQEWVENFCEQRQAKVKDVITNCKSCKESGNKCKTECKTKCKDECEKYKKFIEACGTAGGGIGTAGSPWSKRWDQIYKRYSKHIEDAKRNRKAGTKNCGTSSTTNAAASTDENKCVQSDIDSFFKHLIDIGLTTPSSYLSNVLDDNICGADKAPWTTYTTYTTTEKCNKERDKSKSQSSDTLVVVNVPSPLGNTPYRYKYACQCKIPTNEETCDDRKEYMNQWSCGSARTMKRGYKNDNYELCKYNGVDVKPTTVRSNSSKLD
notes: Made in E. coli
In turn, B5 came in with a Kd of 3.5 nM.

B6: DBL1X-DBL2Xb (FCR3, E. coli, as the column stands) (other)
chain: HSDSGKYDPCEKKLPPYDDNDQWKCQQNSSDGSGKPENICVPPRRERLCTYNLENLKFDKIRDNNAFLADVLLTARNEGEKIVQNHPDTNSSNVCNALERSFADLADIIRGTDQWKGTNSNLEKNLKQMFAKIRENDKVLQDKYPKDQKYTKLREAWWNANRQKVWEVITCGARSNDLLIKRGWRTSGKSDRKKNFELCRKCGHYEKEVPTKLDYVPQFLRWLTEWIEDFYREKQNLIDDMERHREECTREDHKSKEGTSYCSTCKDKCKKYCECVKKWKTEWENQENKYKDLYEQNKNKTSQKNTSRYDDYVKDFFEKLEANYSSLENYIKGDPYFAEYATKLSFILNPSDANNPSGETANHNDEACNCNESGISSVGQAQTSGPSSNKTCITHSSIKTNKKKECKDVKLGVRENDKDLKICVIEDTSLSGVDNCCCQDLLGILQENCSDNKRGSSSNDSCDNKNQDECQKKLEKVFASLTNGYKCDKCKSGTSRSKKKWIWKKSSGNEEGLQEEYANTIGLPPRTQSLYLGNLPKLENVCEDVKDINFDTKEKFLAGCLIVSFHEGKNLKKRYPQNKNSGNKENLCKALEYSFADYGDLIKGTSIWDNEYTKDLELNLQNNFGKLFGKYIKKNNTAEQDTSYSSLDELRESWWNTNKKYIWTAMKHGAEMNITTCNADGSVTGSGSSCDDIPTIDLIPQYLRFLQEWVENFCEQRQAKVKDVITNCKSCKESGNKCKTECKTKCKDECEKYKKFIEACGTAGGGIGTAGSPWSKRWDQIYKRYSKHIEDAKRNRKAGTKNCGTSSTTNAAASTDENKCVQSDIDSFFKHLIDIGLTTPSSYLSNVLDDNICGADKAPWTTYTTYTTTEKCNKERDKSKSQSSDTLVVVNVPSPLGNTPYRYKY
notes: The value stands in column 4 (E. coli, under FCR3); The column may be shifted, in which case the protein could be the 3D7 baculovirus one; Range derived by me from the FCR3 primers (HSDSGK ... PYRYKY)
Turning to B6, the Kd came out at 14.6 nM.

B7: ID1-ID2a (3D7, Baculo) (other)
chain: LSFILNSSDANNPSEKIQKNNDEVCNCNESGIASVEQEQISDPSSNKTCITHSSIKANKKKVCKHVKLGVRENDKDLRVCVIEHTSLSGVENCCCQDFLRILQENCSDNKSGSSSNGSCNNKNQEACEKNLEKVLASLTNCYKCDKCKSEQSKKNNKNWIWKKSSGKEGGLQKEYANTIGLPPRTQSLCLVVCLDEKGKKTQELKNIRTNSELLKEWIIAAFHEGKNLKPSHEKKNDDNGKKLCKALEYSFADYGDLIKGTSIWDNEYTKDLELNLQKIFGKLFRKYIKKNNTAEQDTSYSSLDELRESWWNTNKKYIWLAMKHGAGMNSTTCCGDGSVTGSGSSCDDIPTIDLIPQYLRFLQEWVEHFCKQRQEKVKPVIENCKSCKESGGTCNGECKTECKNKCEVYKKFIEDCKGGDGTAGSSWVKRWDQIYKRYSKYIEDAKRNRKAGTKNCGPSSTTNAAENKCVQSDIDSFFKHLIDIGLTTPSSYLSIVLDDNICGADKAPWTTYTTYTTTEKCNKETDKSKLQQCNTAVVVNVPSPLGNTPHGYKYACQCKIPTNEETCDDRKEYMNQWSCGSARTMKRGYKNDNYELCKYNGVDVKPTTVRSNSSKLD
notes: not shown: V5 and His tag at the C-terminal (modified pAcGP67-A)
With B7, the equilibrium dissociation constant (Kd) was determined as 5.7 nM. Compared with the last molecule, the Kd is about 2.6-fold lower.

The term Kd denotes a measure of binding affinity in units of concentration. Low values mean higher affinity, high ones lower affinity.
